Our source for the self-cleavage values is the RNAGym collection of RNA variant scans (doi:10.7554/elife.80360).

B1: HDV Ribozyme (parent)
chain: GGCCGGCAUGGUCCCAGCCUCCUCGCUGGCGCCGGCUGGGCAACAUUCCGAGGGGACCGUCCCCUCGGUAAUGGCGAAUGGGACCCA

The variants in this data set derive from B1. The experiment in a line: self-cleavage, relative activity (ratio to wild type); higher = more cleavage; co-transcriptional.
Regarding U65C G74U, the self-cleavage is 0.523.

Regarding U65A U79A, the self-cleavage is 0.727.

As for C63G G68U, the self-cleavage amounted to 0.504.

As to C63G G68A, the self-cleavage is 0.366.

On to C64A G74A, for which the self-cleavage came out at 0.295.

For C64A G74C, the self-cleavage was 0.242.

Take C64A G74U: the self-cleavage was determined as 0.327.

With C64G C85G, the self-cleavage amounted to 0.872.

Regarding C63A G80A, the self-cleavage is 0.388.

With C63U U69G, the self-cleavage is 0.875.

In the case of C64U U69C, the self-cleavage is 1.17.

Turning to C64U U69G, the self-cleavage turned out to be 1.07.

For the variant C63G G73C, the self-cleavage amounted to 0.437.

Take U65C C75G: the self-cleavage came to 0.482.

As for U65C C75A, the self-cleavage turned out to be 0.0489.

In the case of U65C C75U, the self-cleavage is 0.185.

For the variant C63A C66U, the self-cleavage came out at 0.814.

For the variant C63A C66A, the self-cleavage is 0.302.

As to C63A C66G, the self-cleavage is 0.494.

In the case of C64A G68U, the self-cleavage came to 0.272.

C64A G68C: the self-cleavage was 0.554.

On to C62U U69A, for which the self-cleavage amounted to 1.24.

With C64A G81C, the self-cleavage was determined as 0.203.

Take C64A G81U: the self-cleavage is 0.379.

Consider C63G G80U, for which the self-cleavage was determined as 0.199.

Turning to C63G G80C, the self-cleavage was 0.147.

Consider U65C G76U, for which the self-cleavage is 1.14.

For U65C G76A, the self-cleavage is 0.918.

With U65C G76C, the self-cleavage came out at 1.09.

Take C64A U72C: the self-cleavage stood at 0.465.

C64A U72A: the self-cleavage was found to be 0.491.

Consider C64A U72G, for which the self-cleavage stood at 0.856.

As to C62U G74U, the self-cleavage stood at 0.679.

For the variant C64A A87C, the self-cleavage was 0.779.

C64G A77G: the self-cleavage amounted to 0.434.

For C64G A77U, the self-cleavage is 0.506.

Regarding C63A G67C, the self-cleavage amounted to 0.544.

C63A G67U: the self-cleavage worked out at 0.451.

With C63A G67A, the self-cleavage was determined as 0.35.

Consider C64U G81A, for which the self-cleavage turned out to be 0.318.

With C64U G81U, the self-cleavage is 0.313.

As to C64U G81C, the self-cleavage came to 0.315.

With C64U U65G, the self-cleavage is 0.784.

Take C64U U65A: the self-cleavage is 0.984.

Take C64U U65C: the self-cleavage was found to be 0.914.

In the case of C64G, the self-cleavage is 0.954.

Consider C64A, for which the self-cleavage turned out to be 0.908.

With C64U, the self-cleavage was found to be 0.995.

Take C64G G82A: the self-cleavage was found to be 0.535.

Take C64U A83U: the self-cleavage was 0.361.

As for C64U A83C, the self-cleavage was determined as 0.332.

Regarding C64A C84A, the self-cleavage stood at 1.15.

In the case of C64A C84G, the self-cleavage amounted to 0.536.

In the case of C63A G82U, the self-cleavage turned out to be 0.467.

Turning to C63A G82A, the self-cleavage amounted to 0.408.

Regarding C64U A70G, the self-cleavage came to 0.701.

For C64U A70C, the self-cleavage came out at 0.956.

As for C64U C75A, the self-cleavage came out at 0.242.

With C64U C75U, the self-cleavage came out at 0.252.

With C63G C66G, the self-cleavage amounted to 0.201.

As to C63G C66A, the self-cleavage amounted to 0.289.

Consider C64G C75A, for which the self-cleavage stood at 0.201.

As to C63G A78C, the self-cleavage came out at 0.101.

C63G C84A: the self-cleavage is 1.06.

Take C63G C84U: the self-cleavage was determined as 0.629.

As for C63G G82U, the self-cleavage amounted to 0.289.

As for C63G G82C, the self-cleavage is 0.136.

In the case of C63G G82A, the self-cleavage was 0.219.

As for U65C G82A, the self-cleavage came to 0.554.

Regarding U65C G82U, the self-cleavage is 0.567.

For C63U A71C, the self-cleavage was found to be 1.15.

Consider C64U A71C, for which the self-cleavage stood at 0.719.

Turning to U65A C75G, the self-cleavage was found to be 0.19.

Turning to U65A C75U, the self-cleavage was 0.277.

As for U65C A71U, the self-cleavage was 0.812.

For the variant C64G U65C, the self-cleavage worked out at 0.199.

As for C64G U65G, the self-cleavage turned out to be 0.943.

With C63G G74A, the self-cleavage stood at 0.326.

As to C64G A83G, the self-cleavage is 0.708.

Consider C64G A83U, for which the self-cleavage amounted to 0.508.

On to U65A G82A, for which the self-cleavage was found to be 0.281.

U65A G82C: the self-cleavage was found to be 0.614.

As to U65C C86A, the self-cleavage was found to be 0.673.

Take C63U C66U: the self-cleavage was 0.816.

As to C64A A70C, the self-cleavage was determined as 0.623.

For C64A A70U, the self-cleavage amounted to 0.752.

For C64A A70G, the self-cleavage is 0.749.

C63A A71U: the self-cleavage was found to be 1.11.

C63A A71G: the self-cleavage came out at 0.504.

Take U65A C66U: the self-cleavage was 0.812.

U65A C66G: the self-cleavage was 0.932.

Turning to C63A C86A, the self-cleavage was 1.05.

In the case of C63G C86G, the self-cleavage was found to be 0.95.

In the case of C63G U72A, the self-cleavage came out at 0.458.

Turning to C63G U72C, the self-cleavage stood at 0.344.

As for C64A A78G, the self-cleavage amounted to 0.686.

Regarding C64A A78U, the self-cleavage was 0.285.

Consider C64A A78C, for which the self-cleavage was found to be 0.242.

As to C63G C85G, the self-cleavage came to 1.02.

For the variant C63G C85U, the self-cleavage is 0.92.

On to C63U U72A, for which the self-cleavage stood at 0.864.

For the variant C63U U72C, the self-cleavage is 0.751.

In the case of C63U U72G, the self-cleavage was determined as 0.776.

For the variant U65C C85A, the self-cleavage came to 0.991.

As for C64G G73A, the self-cleavage was found to be 0.594.

For C63U C64U, the self-cleavage came to 1.08.

On to C63U C64G, for which the self-cleavage was 0.809.

In the case of C63U C64A, the self-cleavage came to 0.831.

Take C62U G81C: the self-cleavage was 0.215.

With C62U G81U, the self-cleavage worked out at 0.529.

Take C64G U69A: the self-cleavage is 1.01.

Regarding U65C A83U, the self-cleavage was found to be 0.369.

In the case of U65C A83G, the self-cleavage turned out to be 0.862.

With C63U A77C, the self-cleavage is 0.352.

On to C63U G74C, for which the self-cleavage came out at 0.201.

Take C63U G74A: the self-cleavage was found to be 0.546.

As to C63U C75A, the self-cleavage was 0.106.

Turning to C63U C75G, the self-cleavage was 0.0755.

As to C62U U79G, the self-cleavage came to 0.831.

For C62U U79C, the self-cleavage is 0.432.

Take U65C: the self-cleavage came to 1.02.

U65A: the self-cleavage was found to be 0.966.

Take U65A G67U: the self-cleavage was determined as 0.767.

Consider U65A G67C, for which the self-cleavage stood at 0.705.

On to C63G A87C, for which the self-cleavage is 0.737.

Take C63G A87G: the self-cleavage was 0.858.

Take C63U G73A: the self-cleavage is 0.831.

Turning to U65C A87G, the self-cleavage came to 0.94.

Turning to U65C A87U, the self-cleavage is 1.08.

As to C62U C86G, the self-cleavage was determined as 0.831.

Turning to C62U C86A, the self-cleavage was found to be 0.82.

As to C64A U79C, the self-cleavage stood at 0.636.

For the variant U65C C84A, the self-cleavage was 0.773.

On to U65C C84U, for which the self-cleavage stood at 0.703.

Take U65C C84G: the self-cleavage turned out to be 0.646.

Regarding C63G G67C, the self-cleavage was 0.342.

In the case of C63G G67U, the self-cleavage was 0.293.

In the case of C63G G67A, the self-cleavage was found to be 0.372.

With C63A U69C, the self-cleavage came to 1.12.

In the case of C63A U69G, the self-cleavage was 0.884.

With C63A U69A, the self-cleavage was 0.965.

For C64A U69C, the self-cleavage is 0.782.

With C63A G74A, the self-cleavage was found to be 0.478.

For the variant C63A G74C, the self-cleavage came out at 0.312.

In the case of C63A G74U, the self-cleavage is 0.515.

Regarding C64U G82A, the self-cleavage was found to be 0.487.

Consider C64U G82C, for which the self-cleavage was found to be 0.208.

For C64U G82U, the self-cleavage was determined as 0.486.

Regarding C64G G74U, the self-cleavage stood at 0.635.

With C64G G74C, the self-cleavage is 0.244.

Consider C64G A78U, for which the self-cleavage is 0.18.

As to C62U U72A, the self-cleavage turned out to be 0.441.

For the variant C62U U72G, the self-cleavage was 0.649.

C62U G73C: the self-cleavage is 0.354.

Take C62U G82U: the self-cleavage came to 0.402.

As to C63A A77U, the self-cleavage was 0.356.

Take C63A A77C: the self-cleavage came out at 0.268.

Turning to C64G U72C, the self-cleavage was 0.364.

On to U65A G76A, for which the self-cleavage came out at 0.976.

For C64U C85A, the self-cleavage was found to be 1.25.

As to C63G G76C, the self-cleavage was found to be 0.967.

In the case of C63G G76A, the self-cleavage amounted to 0.974.

Turning to U65A A78U, the self-cleavage amounted to 0.396.

Consider C64G A70C, for which the self-cleavage was 0.536.

For C64G A70G, the self-cleavage came out at 0.712.

For the variant C63U G81A, the self-cleavage turned out to be 0.521.

As for C63U G81C, the self-cleavage was determined as 0.151.
